From the supplement of paper PMC10724198
± gives the standard deviation of the averaged measurements.

How the values were obtained:
Saccharomyces cerevisiae [1] = experiment: protein stability index of tFT-peptide fusion (C-terminal peptide) (PSI (0-1 scale)); higher = more stable (slower turnover)
Description: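 MPS profiling in S. cerevisiae of the tFT-X12 degron library: putative degron peptides plus stable controls, 12 aa, fused to the C-terminus of a sfGFP-mCherry timer. Cells are FACS-sorted into 8 mCherry/sfGFP bins and deep-sequenced. PSI runs from 0 (unstable) to 1 (stable). Backgrounds are wild type, das1Δ and doa10Δ at 30 °C, and wild type, das1Δ, cdc34-1 and cdc53-1 at 37 °C; 2-3 technical replicates each.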

Saccharomyces cerevisiae [2] = experiment: as above; details: genetic background: wild type; temperature: 30 C
[3] = genetic background: cdc34-1, temperature: 37 C
[4] = genetic background: cdc53-1, temperature: 37 C
[5] = genetic background: das1 deletion, temperature: 30 C
[6] = genetic background: das1 deletion, temperature: 37 C
[7] = genetic background: doa10 deletion, temperature: 30 C
[8] = genetic background: wild type, temperature: 30 C
[9] = genetic background: wild type, temperature: 37 C
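Also: PSI is a weighted mean of sequencing reads over stability bins, variants kept only with over 10 reads, mCherry proximal and sfGFP distal, peptide attached via GGGS linker.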

FVSFTVSFSVVV
protein stability index (Saccharomyces cerevisiae [1]; [3]): 0.296 ± 0.018
protein stability index (Saccharomyces cerevisiae [1]; [4]): 0.38 ± 0.031
protein stability index (Saccharomyces cerevisiae [1]; [5]): 0.334 ± 0.025
protein stability index (Saccharomyces cerevisiae [1]; [6]): 0.417 ± 0.01
protein stability index (Saccharomyces cerevisiae [1]; [7]): 0.357 ± 0.031
protein stability index (Saccharomyces cerevisiae [1]; [8]): 0.342 ± 0.0055
protein stability index (Saccharomyces cerevisiae [1]; [9]): 0.382 ± 0.0063
protein stability index (Saccharomyces cerevisiae [2]): 0.379 ± 0.032

FVVIFRFSRFSA
protein stability index (Saccharomyces cerevisiae [1]; [3]): 0.419 ± 0.12
protein stability index (Saccharomyces cerevisiae [1]; [4]): 0.477 ± 0.012
protein stability index (Saccharomyces cerevisiae [1]; [5]): 0.336 ± 0.025
protein stability index (Saccharomyces cerevisiae [1]; [6]): 0.512 ± 0.018
protein stability index (Saccharomyces cerevisiae [1]; [7]): 0.313 ± 0.0064
protein stability index (Saccharomyces cerevisiae [1]; [8]): 0.326 ± 0.0097
protein stability index (Saccharomyces cerevisiae [1]; [9]): 0.494 ± 0.037
protein stability index (Saccharomyces cerevisiae [2]): 0.39 ± 0.0004

FWYIRIRLAVVA
protein stability index (Saccharomyces cerevisiae [1]; [3]): 0.0797 ± 0.027
protein stability index (Saccharomyces cerevisiae [1]; [4]): 0.175 ± 0.029
protein stability index (Saccharomyces cerevisiae [1]; [5]): 0.0867 ± 0.013
protein stability index (Saccharomyces cerevisiae [1]; [6]): 0.179 ± 0.006
protein stability index (Saccharomyces cerevisiae [1]; [7]): 0.0283 ± 0.0015
protein stability index (Saccharomyces cerevisiae [1]; [8]): 0.0257 ± 0.0096
protein stability index (Saccharomyces cerevisiae [1]; [9]): 0.0826 ± 0.01
protein stability index (Saccharomyces cerevisiae [2]): 0.0536 ± 0.019

FYIWFFRLIYFF
protein stability index (Saccharomyces cerevisiae [1]; [3]): 0.421 ± 0.043
protein stability index (Saccharomyces cerevisiae [1]; [4]): 0.4414 ± 0.0014
protein stability index (Saccharomyces cerevisiae [1]; [5]): 0.402 ± 0.039
protein stability index (Saccharomyces cerevisiae [1]; [6]): 0.536 ± 0.019
protein stability index (Saccharomyces cerevisiae [1]; [7]): 0.344 ± 0.0048
protein stability index (Saccharomyces cerevisiae [1]; [8]): 0.331 ± 0.01
protein stability index (Saccharomyces cerevisiae [1]; [9]): 0.453 ± 0.012
protein stability index (Saccharomyces cerevisiae [2]): 0.408 ± 0.014

FYTYILTVAEAL
protein stability index (Saccharomyces cerevisiae [1]; [3]): 0.518 ± 0.041
protein stability index (Saccharomyces cerevisiae [1]; [4]): 0.583 ± 0.04
protein stability index (Saccharomyces cerevisiae [1]; [5]): 0.457 ± 0.021
protein stability index (Saccharomyces cerevisiae [1]; [6]): 0.531 ± 0.013
protein stability index (Saccharomyces cerevisiae [1]; [7]): 0.454 ± 0.0094
protein stability index (Saccharomyces cerevisiae [1]; [8]): 0.455 ± 0.014
protein stability index (Saccharomyces cerevisiae [1]; [9]): 0.5273 ± 0.0011
protein stability index (Saccharomyces cerevisiae [2]): 0.482 ± 0.015

GALVVSWAEVLC
protein stability index (Saccharomyces cerevisiae [1]; [3]): 0.5163 ± 0.0026
protein stability index (Saccharomyces cerevisiae [1]; [4]): 0.525 ± 0.01
protein stability index (Saccharomyces cerevisiae [1]; [5]): 0.402 ± 0.024
protein stability index (Saccharomyces cerevisiae [1]; [6]): 0.555 ± 0.0083
protein stability index (Saccharomyces cerevisiae [1]; [7]): 0.372 ± 0.014
protein stability index (Saccharomyces cerevisiae [1]; [8]): 0.402 ± 0.037
protein stability index (Saccharomyces cerevisiae [1]; [9]): 0.57 ± 0.02
protein stability index (Saccharomyces cerevisiae [2]): 0.503 ± 0.012

GCLSFVAAVHLH
protein stability index (Saccharomyces cerevisiae [1]; [3]): 0.624 ± 0.026
protein stability index (Saccharomyces cerevisiae [1]; [4]): 0.6949 ± 0.0026
protein stability index (Saccharomyces cerevisiae [1]; [5]): 0.598 ± 0.043
protein stability index (Saccharomyces cerevisiae [1]; [6]): 0.69689 ± 0.00038
protein stability index (Saccharomyces cerevisiae [1]; [7]): 0.284 ± 0.024
protein stability index (Saccharomyces cerevisiae [1]; [8]): 0.332 ± 0.028
protein stability index (Saccharomyces cerevisiae [1]; [9]): 0.528 ± 0.034
protein stability index (Saccharomyces cerevisiae [2]): 0.4325 ± 0.0028

GCRLRHRLVRIV
protein stability index (Saccharomyces cerevisiae [1]; [3]): 0.517 ± 0.038
protein stability index (Saccharomyces cerevisiae [1]; [4]): 0.646 ± 0.052
protein stability index (Saccharomyces cerevisiae [1]; [5]): 0.604 ± 0.035
protein stability index (Saccharomyces cerevisiae [1]; [6]): 0.6902 ± 0.0065
protein stability index (Saccharomyces cerevisiae [1]; [7]): 0.109 ± 0.048
protein stability index (Saccharomyces cerevisiae [1]; [8]): 0.119 ± 0.044
protein stability index (Saccharomyces cerevisiae [1]; [9]): 0.201 ± 0.011
protein stability index (Saccharomyces cerevisiae [2]): 0.2105 ± 0.0013

GESCGGSERRVG
protein stability index (Saccharomyces cerevisiae [1]; [3]): 0.69 ± 0.019
protein stability index (Saccharomyces cerevisiae [1]; [4]): 0.7319 ± 0.0058
protein stability index (Saccharomyces cerevisiae [1]; [5]): 0.637 ± 0.009
protein stability index (Saccharomyces cerevisiae [1]; [6]): 0.7352 ± 0.0033
protein stability index (Saccharomyces cerevisiae [1]; [7]): 0.636 ± 0.024
protein stability index (Saccharomyces cerevisiae [1]; [8]): 0.666 ± 0.031
protein stability index (Saccharomyces cerevisiae [1]; [9]): 0.6897 ± 0.0056
protein stability index (Saccharomyces cerevisiae [2]): 0.643 ± 0.3

GFGRDHGNDTGP
protein stability index (Saccharomyces cerevisiae [1]; [3]): 0.712 ± 0.017
protein stability index (Saccharomyces cerevisiae [1]; [4]): 0.7331 ± 0.0021
protein stability index (Saccharomyces cerevisiae [1]; [5]): 0.6497 ± 0.0025
protein stability index (Saccharomyces cerevisiae [1]; [6]): 0.75 ± 0.0082
protein stability index (Saccharomyces cerevisiae [1]; [7]): 0.645 ± 0.021
protein stability index (Saccharomyces cerevisiae [1]; [8]): 0.648 ± 0.02
protein stability index (Saccharomyces cerevisiae [1]; [9]): 0.725 ± 0.0097
protein stability index (Saccharomyces cerevisiae [2]): 0.721 ± 0.0055

GFRVPVVVGVRG
protein stability index (Saccharomyces cerevisiae [1]; [3]): 0.449 ± 0.023
protein stability index (Saccharomyces cerevisiae [1]; [4]): 0.475 ± 0.03
protein stability index (Saccharomyces cerevisiae [1]; [5]): 0.334 ± 0.041
protein stability index (Saccharomyces cerevisiae [1]; [6]): 0.531 ± 0.0077
protein stability index (Saccharomyces cerevisiae [1]; [7]): 0.2939 ± 0.0024
protein stability index (Saccharomyces cerevisiae [1]; [8]): 0.33 ± 0.042
protein stability index (Saccharomyces cerevisiae [1]; [9]): 0.4999 ± 0.0013
protein stability index (Saccharomyces cerevisiae [2]): 0.432 ± 0.0044

GFSSRWLMQYMV
protein stability index (Saccharomyces cerevisiae [1]; [3]): 0.585 ± 0.05
protein stability index (Saccharomyces cerevisiae [1]; [4]): 0.737 ± 0.0088
protein stability index (Saccharomyces cerevisiae [1]; [5]): 0.665 ± 0.021
protein stability index (Saccharomyces cerevisiae [1]; [6]): 0.747 ± 0.0094
protein stability index (Saccharomyces cerevisiae [1]; [7]): 0.326 ± 0.014
protein stability index (Saccharomyces cerevisiae [1]; [8]): 0.375 ± 0.11
protein stability index (Saccharomyces cerevisiae [1]; [9]): 0.462 ± 0.042
protein stability index (Saccharomyces cerevisiae [2]): 0.369 ± 0.0081

GGGGGGGGGGVG
protein stability index (Saccharomyces cerevisiae [1]; [3]): 0.313 ± 0.019
protein stability index (Saccharomyces cerevisiae [1]; [4]): 0.427 ± 0.044
protein stability index (Saccharomyces cerevisiae [1]; [5]): 0.397 ± 0.014
protein stability index (Saccharomyces cerevisiae [1]; [6]): 0.457 ± 0.057
protein stability index (Saccharomyces cerevisiae [1]; [7]): 0.391 ± 0.004
protein stability index (Saccharomyces cerevisiae [1]; [8]): 0.387 ± 0.024
protein stability index (Saccharomyces cerevisiae [1]; [9]): 0.446 ± 0.03
protein stability index (Saccharomyces cerevisiae [2]): 0.514 ± 0.045

GGGVGVAVVLFW
protein stability index (Saccharomyces cerevisiae [1]; [3]): 0.432 ± 0.024
protein stability index (Saccharomyces cerevisiae [1]; [4]): 0.501 ± 0.012
protein stability index (Saccharomyces cerevisiae [1]; [5]): 0.34 ± 0.027
protein stability index (Saccharomyces cerevisiae [1]; [6]): 0.53 ± 0.011
protein stability index (Saccharomyces cerevisiae [1]; [7]): 0.308 ± 0.011
protein stability index (Saccharomyces cerevisiae [1]; [8]): 0.342 ± 0.02
protein stability index (Saccharomyces cerevisiae [1]; [9]): 0.5056 ± 0.0016
protein stability index (Saccharomyces cerevisiae [2]): 0.417 ± 0.016

GGGVWWGVLVLG
protein stability index (Saccharomyces cerevisiae [1]; [3]): 0.37 ± 0.028
protein stability index (Saccharomyces cerevisiae [1]; [4]): 0.451 ± 0.064
protein stability index (Saccharomyces cerevisiae [1]; [5]): 0.31 ± 0.037
protein stability index (Saccharomyces cerevisiae [1]; [6]): 0.50956 ± 0.00012
protein stability index (Saccharomyces cerevisiae [1]; [7]): 0.262 ± 0.0072
protein stability index (Saccharomyces cerevisiae [1]; [8]): 0.309 ± 0.033
protein stability index (Saccharomyces cerevisiae [1]; [9]): 0.4678 ± 0.0034
protein stability index (Saccharomyces cerevisiae [2]): 0.46142 ± 8.8e-05

GGGWAVLLWVQV
protein stability index (Saccharomyces cerevisiae [1]; [3]): 0.387 ± 0.019
protein stability index (Saccharomyces cerevisiae [1]; [4]): 0.457 ± 0.043
protein stability index (Saccharomyces cerevisiae [1]; [5]): 0.339 ± 0.029
protein stability index (Saccharomyces cerevisiae [1]; [6]): 0.476 ± 0.0087
protein stability index (Saccharomyces cerevisiae [1]; [7]): 0.29 ± 0.01
protein stability index (Saccharomyces cerevisiae [1]; [8]): 0.317 ± 0.017
protein stability index (Saccharomyces cerevisiae [1]; [9]): 0.442 ± 0.007
protein stability index (Saccharomyces cerevisiae [2]): 0.406 ± 0.022

GGVVGGVGVYDG
protein stability index (Saccharomyces cerevisiae [1]; [3]): 0.702 ± 0.012
protein stability index (Saccharomyces cerevisiae [1]; [4]): 0.7445 ± 0.0015
protein stability index (Saccharomyces cerevisiae [1]; [5]): 0.635 ± 0.016
protein stability index (Saccharomyces cerevisiae [1]; [6]): 0.748 ± 0.019
protein stability index (Saccharomyces cerevisiae [1]; [7]): 0.65 ± 0.021
protein stability index (Saccharomyces cerevisiae [1]; [8]): 0.65 ± 0.02
protein stability index (Saccharomyces cerevisiae [1]; [9]): 0.706 ± 0.015
protein stability index (Saccharomyces cerevisiae [2]): 0.707 ± 0.019

GGWGVFGVWVWM
protein stability index (Saccharomyces cerevisiae [1]; [3]): 0.476 ± 0.051
protein stability index (Saccharomyces cerevisiae [1]; [4]): 0.557 ± 0.0062
protein stability index (Saccharomyces cerevisiae [1]; [5]): 0.429 ± 0.027
protein stability index (Saccharomyces cerevisiae [1]; [6]): 0.59 ± 0.0025
protein stability index (Saccharomyces cerevisiae [1]; [7]): 0.186 ± 0.0072
protein stability index (Saccharomyces cerevisiae [1]; [8]): 0.214 ± 0.031
protein stability index (Saccharomyces cerevisiae [1]; [9]): 0.422 ± 0.012
protein stability index (Saccharomyces cerevisiae [2]): 0.324 ± 0.0082

GGYVTVTSVTVV
protein stability index (Saccharomyces cerevisiae [1]; [3]): 0.587 ± 0.051
protein stability index (Saccharomyces cerevisiae [1]; [4]): 0.62 ± 0.02
protein stability index (Saccharomyces cerevisiae [1]; [5]): 0.501 ± 0.025
protein stability index (Saccharomyces cerevisiae [1]; [6]): 0.605 ± 0.019
protein stability index (Saccharomyces cerevisiae [1]; [7]): 0.499 ± 0.035
protein stability index (Saccharomyces cerevisiae [1]; [8]): 0.506 ± 0.011
protein stability index (Saccharomyces cerevisiae [1]; [9]): 0.611 ± 0.015
protein stability index (Saccharomyces cerevisiae [2]): 0.468 ± 0.039
